The values below are quoted from earlier work in US20190390191A1, “CONSTRUCTING ENZYME-BASED SENSORS” (PharmaSeq, Inc., priority 2018, published 2019).

What is called Km is the substrate concentration at which the rate is half of its maximum.

For data set [1] the following is noted: for T. aquaticus; Yeh et al.
The conditions of data set [2]: E. coli enzyme; Boulanger et al.

Consider Alkaline phosphatase, for which the Km in data set [1] is 840 µM.

In the case of “Alkaline phosphatase of E. coli: zinc-containing dimeric enzyme encoded by the phoA gene of E. coli”, the Tm in data set [2] is 97 °C.
